Experimental data: the DeepSol protein solubility set

Experiment: soluble on expression in E. coli; label from the status in PepcDB or PDB records

Sequence | soluble on expression in E. coli
MASIFESPELIGAFIGEVEEQLQLLENNVVELEKNGGTAEVVQELFRAAHTLKGSSATMGFEKMKTLTHEMENVLDKIRNGLLEISRPVIDVLFECLDCLNMLKEDFVSDSNNVKTEITPVITKLKEISSENETNNQNSDSDKAENLETGRREQPIFVLDEKQQEQINQALGIGQNVLVCEVEILEDSQMKSVRACLIMNFLNEWGTVINMVPNVMEIPIDSDVGKVAFLVVTQMSADELRQKVQNDLMDIKEVRVFPYFIQNSISQTKDGETGVRDKDNSSGVKTATEEKRVVHTVRIDVDRLERMMDLVGELVIEQIRIAQVANNLYNQYPSDETVDDLIGISNRVSILINELQEGIMKTRMIPVQQLFSRFPRMVRDLSVSLNKEVNLVLEGGETEIDRTIMEEMSDPLIHLIRNAIDHGIENPEIRKKLGKPEQGTLRVTALPEDSNVIITVEDDGAGIDPQEIKQSAIKKRIVTEQEANNMTEQQLINLIFQTGFSTSQKVSDVSGRGVGMDIVKTHIEKLNGIIDVETCAGSGTKFIIKLPIKLPLTLAILKGLLVKISNETYALPMNNVVEIVRKPKNEIESINGQAVAVIRDRAIPLIWLHDYFGIPRGNERKNTLIVLLGIAEKRFGLVVDELIGNQEIVVTNLGSYIGKVEGISGATILGDRSVACILDVVGIAKIVNSRKVSRIDVEYSKQ | not soluble
MIQRLLNEENLLIGISELSEIAEVSPRQLRYWEEKGYISSIAKDANGPRKYRLHTVVKVHWIKRFLDEGYTLQSAVEKAEEQHRNVGMTKKIFSQMFHGISEVCPNYVAIDLGDFDEEQKLYVVFNETTEVSEYLLIPKDADVSDELKKRK | not soluble
MSGKLTVITGPMYSGKTTELLSFVEIYKLGKKKVAVFKPKIDSRYHSTMIVSHSGNGVEAHVIERPEEMRKYIEEDTRGVFIDEVQFFNPSLFEVVKDLLDRGIDVFCAGLDLTHKQNPFETTALLLSLADTVIKKKAVCHRCGEYNATLTLKVAGGEEEIDVGGQEKYIAVCRDCYNTLKKRV | soluble
VTNWWSGDKRYQRFIERLLSVFEGRVLELPAESHGNVAVMAFQSSPKEQNIDKLKKRADKLSNAYGLDFHRMLAGLKASNPNNGKHFHL | not soluble
KLSSSEKNAILNAVSWYDADAEKVVKGTTKLAGDKLKELLAYLGCKEKELGDYGYFATEKKGEYLEYETESNLRDTENVPLKEAIYTYFLREVKPHVGEAWINLDATKIGYEISFNKYFYKHKPLRSIEDVTADILALEKESDGLIAEILGL | not soluble
IVSREAKLQFAYLENFKTKMRSTVSVREGQGVVLLCGPPPHSGELSYAWIFNEYPSFVEEDSRRFVSQETGHLYISKVEPSDVGNYTCVVTSMVTNARVLGSPTPLVLRSDGVMGEYEPKIEVQFPETLPAAKGSTVKLECFALGNPIPQINWRRSDGLPFSSKIKLRKFSGVLEIPNFQQEDAGSYECIAENSRGKNVARGRLTYYAKPHWVQLIKDVEIAVEDSLYWECRASGKPKPSYRWLKNGAALVLEERTQIENGALTISNLSVTDSGMFQCIAENKHGLVYSSAELKVVASAPDFSKNPMKKLVQVQVGSLVSLDCKPRASPRALSSWKKGDVSVQEHERISLLNDGGLKIANVTKADAGTYTCMAENQFGKANGTTHLVVTEPTRITLAPSNMDVSVGESVILPCQVQHDPLLDIIFTWYFNGALADFKKDGSHFEKVGGSSSGDLMIRNIQLKHSGKYVCMVQTGVDSVSSAADLIVRGSPGPPENVKVDEITDTTAQLSWKEGKDNHSPVISYSIQARTPFSVGWQTVTTVPEVIDGKTHTATVVELNPWVEYEFRVVASNKIGGGEPSLPSEKVRTEEAVPEVPPSEVNGGGGSRSELVITWDPVPEELQNGEGFGYVVAFRPLGVTTWIQTVVTSPDTPRYVFRNESIVPYSPYEVKVGVYNNKGEGPFSPVTTVFSAEEEPTVAPSQVSANSLSSSEIEVSWNTIPWKLSNGHLLGYEVRYWNGGGKEESSSKMKVAGNETSARLRGLKSNLAYYTAVRAYNSAGAGPFSATVNVTTKKTPPSQPPGNVVWNATDTKVLLNWEQVKAMENESEVTGYKVFYRTSSQNNVQVLNTNKTSAELVLPIKEDYIIEVKATTDGGDGTSSEQIRIPRITSMDARGSTSAISNVHPMSSYMPIVLFLIVYVLW | soluble
MNTPAQRHFTLEPANAERLADLSGCFNEHLRQIELRLGVEIANRGHTFHITGPEPAVTSTETLLRALYAEATGTTFNNHTIQLRLSEAHMAQIVEQTDTPQDIGIRVKRGTVRGHGANQTKYLHKIATHDINFGIGPAGTGKTFLAVASAVEALNESRVQRLILVRPAVEAGEKLGFLPGDLNQKIDPYLRPLYDALYEMLGVEKVLKLLEKNIIEIAPLAYMRGRTLNNAFVILDEAQNTTIEQMKMFLTRLGFGSTAVVTGDLTQIDIPKHLKSGLDDAIEVLHDIEGISFTFFKSHDVVRHPLVARIVSAYDKHNTHPSTTKPA | not soluble
MGSDKIHHHHHHMLWLLMTTGKCNLKCDYCGGSFPDNVVPYGIKYDINSVKKLIEKDKDSTIIFYGGEPLLNYKFVMAVLDNVRAKRYGIQTNGIAVRLLPERYWRKINVALLSIDGREEITNKHRGKGIYKAVLRSAKYLKDLGVETIARMTVTQDTDIFTDVMHLIDLGLFDKVHWQLDVIWSEEWDFKSWSFSYLNGIKRLTDYFLSELRKGRVVKIIPILGVISAHFFEGYKGSPCGAGYSSVTVTPDGRILSCPIAVREKWAELGNVNLGYRLLEDPLPDDCKRCEFKRYCGGRCLYAQKERYWGEEGFKAVDEVNKEYLRTVLSIIPEIERLIRDGYIRLSDLYYNPILDSTEIIP | not soluble
MRAERRKQLFRLLGDLPDRRPISVETLRIEEREENIVETLLLDLNGHEKAPAYFVKPKKTEGPCPAVLFQHSHGGQYDRGKSELIEGADYLKTPSFSDELTSLGYGVLAIDHWGFGDRRGKAESEIFKEMLLTGKVMWGMMIYDSLSALDYMQSRSDVQPDRIGTIGMSMGGLMAWWTAALDDRIKVCVDLCSQVDHHVLIKTQNLDRHGFYYYVPSLAKHFSASEIQSLIAPRPHLSLVGVHDRLTPAEGVDKIEKELTAVYAGQGAADCYRVVRSASGHFETAVIRHEAVRFLQKWLLEHHHHHH | not soluble
MGSDKIHHHHHHMLFWSTVDLGLTFMATSSTLAFDSSNRIDDVKIVIKGYEFGPAVPKLVVKLNQKISKVSTKDLKVETAGVKRQIKKVYLSDKNSQKSTKKEGDYLTIQMPVTYNVDDSSKNASPFVYNTDVFQNQWVKTYPVSIKGLTVSYKGKSTNNLTSKSDAINKRVSPDSEVFTNRGSFSGNYTNPLTKKNEKVDLQYAAYEPKKLQSGNKNPLIIWLHGQGEGGTDPDITLLGNKVTALIKEDIQNHFKSGNQKGTYVLTVQAPTYWMDEGDGSNGQGAGTSRYTEVLMDAIKKYVAKIT | not soluble
MGHHHHHHSHMEKSEPVDQRRHTAGKAIVDSRSAQPKETSEERKARLSEWKAGKGRVLKRPPNSVVTQHEPAGQNEKPVGSFWTTMAEEDEQRLFTEKVNNTFSECLNLINEGCPKEDILVTLNDLIKNIPDAKKLVKYWICLALIEPITSPIENIIAIYEKAILAGAQPIEEMRHTIVDILTMKSQEKANLGENMEKSCASKEEVQEVSIEDTGVDVDPEKLEMESKLHRNLLFQDCEKEQDNKTKDPTHDVKTPNTETRTSCLIKYNVSTTPYLQSVKKKVQFDGTNSAFKELKFLTPVRRSRRLQEKTSKLPDMLRDHYPCVSSLEQLTELGRETDAFVCRPNAALCRVYYEADTT | not soluble
MSLSLPLFYAPDIEQSDRLPDDEAGHILRVLRMQAGDRLRLTDGRGSFFDAVIETADRKSCYVSVCGQESWQKPWRDRITIAIAPTKQSERMEWMLEKLVEIGVDEVVFIESEHSERRRIKAERLERIAISAMKQSLKASFPVIRVNIPIQTVIADTPKAAVRLIAYVDEAVRAEITQGRGYPSDFYHVGQDVLILIGPEGDFSPSEVESALLAGFAPVSLGESRLRTETAGLVACQWIHTLQACYRIGEGHHHHHH | soluble
MAHHHHHHMQSNSAPVSYGAQLRASMQTLRANDTQFEQFTRGLGAVLQQWTALQLVAQHCDSRAPAVLYEDLCAWHKHDGEVYVDDMEVYFEEFFDNIRSARIEDDSMQEVGTVLHDMYCRCCLNDFSLVEHYLETLAMYVQTNPVAMSVNGGTNENLEDDAEEDAELGGDAVCEEGVDNEDEESEPMQAPTPKAPQQPPQPPRHQQQPQRKKRKNTSVRSRDGWNIVQ | not soluble
MGSDKIHHHHHHLQVEKNVVISEFIVNMEDVLYHRDNTDVNIAEKVAEQTASLAHYGVAHYVLTNATNQQDSDNLHIVQTDLFEHYPKLTLYFYRILMAFDFLQAHPEIEKAALTDAGDVKMLNYPFDAVEDGILYMGDETIFIYDTSILIGYDGPQFIKDFIWENGHLPILNLGIMVGTRETLIEYLGIMVKLITEAELSLAQGNDEAFLGTYKMAISNYVAYYYFKDRLVHGNQVSTIFHGEQMVSGAWFKHK | not soluble
SLVPQGGPVLCRDEMEEWSASEAMLFEEALEKYGKDFNDIRQDFLPWKSLASIVQFYYMWKTTDRYIQQKRLKAAEAEG | soluble
MGSDKIHHHHHHMPFDGLLLHKAVRELKELEGEHLRQIYQPTTVDYYFLFRSATVRVCLRPDVSHVAIAEKEEASEKMPSSFTMLLRKELKGAKLLKVEQIGMDRTLRFSFEKFDEIEGIVQKDLYIEIMGIHSNMILVRDRRIIDAHRRIVTKKREILPGREFVIFPSGKVSIFELRELPPESEKTIRNVLLSLLEGFSPVSVEELIHRTGYELDTPWKAVDQRKILEVLEEIKKELELPGVFVYYEASHPVEVSAFRFTMLSLKERYFEKPSEGINEFVRWKEEKSTFENTKNRFIKVVVNRIEDLEDLEEKLSRELSEAEKAERYKKLGDLIVQNLWSIKGKSGEVELTDWETNEKIVVDVGKDPAQTAQKFYNTYKKLQRKKEQVEKRLEEIQREKEYLYQLWQTIEDAEDLETLEEIEEEMREFGLLKERKTKKQKSKKTRFREVYYGGFKILIGRNNKQNDELVRTSSKEDLWFHAHEMPGAHVVVKTEGKKVPQEVVEYAASLAAGYSKGKNSGKVPVDYTFIKYVRKPKGFKPGMVIYKNYKTILVEPRRIEG | not soluble
MRIARRAVEEWVEHGRRLDVEAGGKLGRPGAAFVTLERRSGDGWELRGCIGVVRPVLPLVEAVVTAAVDAASSDPRFEPLSREELDRVRVEVTVLGSMEPLPKKPHERPALVEVGLHGLYVEKPPYAGLLLPQVAVDEGWDPILFLTWACIKAGLPGTCWLREDVEIYRFRAAVWRETEPRGPVVRRDLAREAAAKGVNARVSTHISSCKSLEHHHHHHTHISSCKSLEHHHHHHTHISSCKSLEHHHHHHTHISSCKSLEHHHHHHTHISSCKSLEHHHHHHTHISSCKSLEHHHHHHTHISSCKSLEHHHHHH | not soluble
MVYPRLLINLKEIEENARKVVEMASRRGIEIVGVTKVTLGDPRFAETLRKAGIGILGESRIRNVLRMKKAGIEGPFMLLRLPMMSELVEDVKHFDYIMVSDPDVAKKVDELSREMKRNVKIIYMIDVGDLREGVWFEKAVEEIAQCRGANIVGIGTNFGCYGGIIPTREKFEILLDIKEKLEKNHGFNIEIVSGGNTPALYALENGEIPEGINQLRIGEAIVLGRDITNNRVIDWLSQNTFLIEAEVIEVKEKPSVPLGKRGLDVFGRKVDFVDRGIRKRAICALGEQDIDSRGLIPVDKGVEVLHASSDHIVLDVTDFGDVKVGDVFRFRMTYSCLLKAMTSPFVEKVYEPSI | soluble
